Test in all cases: cell-based or functional assay
For assay [1], the target named is HIV-1 Env of isolate NL43 (positive control) (HIV-1).
Assay [2] has as its target HIV-1 Env of isolate APV-6 (Clade B) (HIV-1).
Assay [3] concerns the target HIV-1 Env of isolate CMU02 (CRF01_AE) (HIV-1).
Assay [4] addresses HIV-1 Env of isolate IAVI-C22 (Clade C) (HIV-1).
Assay [5] deals with HIV-1 92TH021 envelope protein (Env) on pseudotyped virus (HIV-1 strain 92TH021).
For assay [6], the target named is HIV-1 93IN905 envelope protein (Env) on pseudotyped virus (HIV-1 strain 93IN905).
Assay [7] addresses HIV-1 94UG103 envelope protein (Env) on pseudotyped virus (HIV-1 strain 94UG103).
The target in assay [8] is HIV-1 Env of isolate IAVI-C3 (Clade C) (HIV-1).
Assay [9] addresses HIV-1 Env of isolate MGRM-A-011 (pseudovirus) (HIV-1).
Assay [10] has as its target HIV-1 Env of isolate MG RM-D-011 (subtype D) (HIV-1).
Assay [11] concerns the target HIV-1 Env of isolate MGRM-A-014 (pseudovirus) (HIV-1).
Assay [12] deals with HIV-1 envelope glycoprotein (Env) of isolate 92UG031 (HIV-1).
Assay [13] concerns the target HIV-1 Env of isolate MG RM-D-016 (subtype D) (HIV-1).
Assay [14] concerns the target HIV-1 Env of isolate MGRM-Chronic-B-004 (subtype B), on pseudovirus (HIV-1).
The target in assay [15] is HIV-1 envelope glycoprotein (Env) of isolate 94UG103 (HIV-1).
In assay [16] the target is HIV-1 Env of isolate MGRM-Chronic-B-002 (subtype B), on pseudovirus (HIV-1).
The target in assay [17] is HIV-1 Env of isolate MG RM-D-013 (subtype D) (HIV-1).
In assay [18] the target is HIV-1 Env of isolate MG RM-D-004 (subtype D) (HIV-1).
The target of assay [19] is HIV-1 Env of isolate 92UG024 (subtype D) (HIV-1).
For assay [20], the target named is HIV-1 Env of isolate MGRM-Chronic-B-017 (subtype B), on pseudovirus (HIV-1).
Assay [21] addresses HIV-1 Env of isolate MGRM-Chronic-B-010 (subtype B), on pseudovirus (HIV-1).
The target in assay [22] is HIV-1 APV17 Env (HIV-1).
The target of assay [23] is HIV-1 JR-CSF Env P299A (HIV-1 (isolate JR-CSF, clade B)) (UniProt P20871).
Assay [24] has as its target HIV-1 JR-CSF Env R327A (HIV-1 isolate JR-CSF) (UniProt P20871).
Assay [25] deals with HIV-1 JR-CSF Env V292A (HIV-1 (isolate JR-CSF, clade B)) (UniProt P20871).
Assay [26] concerns the target HIV-1 JR-CSF Env N355A (HIV-1 isolate JR-CSF) (UniProt P20871).
Assay [27] deals with HIV-1 envelope glycoprotein (Env) of isolate 92BR020, on pseudovirus (HIV-1).
Assay [28] concerns the target HIV-1 APV13 Env (HIV-1).
For assay [29], the target named is HIV-1 JR-CSF Env I309A (HIV-1 (isolate JR-CSF, clade B)) (UniProt P20871).
Assay [30] concerns the target HIV-1 JR-CSF Env F317A (HIV-1 (isolate JR-CSF, clade B)) (UniProt P20871).
Assay [31] addresses HIV-1 JR-CSF Env D325A (HIV-1 isolate JR-CSF) (UniProt P20871).
The target of assay [32] is HIV-1 JR-CSF Env T341A (HIV-1 isolate JR-CSF) (UniProt P20871).
The target of assay [33] is HIV-1 JR-CSF Env N295A (HIV-1 (isolate JR-CSF, clade B)) (UniProt P20871).
Assay [34] deals with HIV-1 CMU02 envelope glycoprotein (Env) on pseudovirus (HIV-1).
The target in assay [35] is HIV-1 MGRM-D-001 envelope glycoprotein (Env) on pseudovirus (HIV-1).
Assay [36] addresses aMLV envelope protein on pseudovirus (negative control virus).
In assay [37] the target is HIV-1 APV17 envelope glycoprotein (Env) on pseudovirus (HIV-1).
The target in assay [38] is HIV-1 92UG024 envelope glycoprotein (Env) on pseudovirus (HIV-1).
The target in assay [39] is HIV-1 MGRM-D-018 envelope glycoprotein (Env) on pseudovirus (HIV-1).
For assay [40], the target named is HIV-1 MGRM-C-027 envelope glycoprotein (Env) on pseudovirus (HIV-1).
Assay [41] deals with HIV-1 92UG005 envelope glycoprotein (Env) on pseudovirus (HIV-1).

This is an account of results in patent publication US20240132578A1.

As a reminder, the IC50 is the concentration that gives 50% inhibition.

Chain of PGT-144 (4970_K22) (antibody) (VH): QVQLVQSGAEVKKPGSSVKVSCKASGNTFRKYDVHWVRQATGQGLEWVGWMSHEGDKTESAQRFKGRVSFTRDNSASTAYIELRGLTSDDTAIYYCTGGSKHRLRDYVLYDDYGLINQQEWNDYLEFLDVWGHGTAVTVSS
Chain of PGT-144 (4970_K22) (antibody) (VL): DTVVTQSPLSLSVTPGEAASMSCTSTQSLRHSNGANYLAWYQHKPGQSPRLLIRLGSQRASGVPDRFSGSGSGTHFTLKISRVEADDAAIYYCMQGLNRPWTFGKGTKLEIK
Chain of 1443_C16 (PG16) (TCN-116) (antibody) (VH): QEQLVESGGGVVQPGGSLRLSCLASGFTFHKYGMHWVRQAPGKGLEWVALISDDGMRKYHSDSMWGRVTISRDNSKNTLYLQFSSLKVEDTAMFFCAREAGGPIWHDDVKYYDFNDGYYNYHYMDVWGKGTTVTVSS
Chain of 1443_C16 (PG16) (TCN-116) (antibody) (VL): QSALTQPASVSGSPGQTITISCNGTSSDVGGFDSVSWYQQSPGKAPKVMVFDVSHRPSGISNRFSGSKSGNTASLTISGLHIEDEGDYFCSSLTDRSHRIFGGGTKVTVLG
Chain of PGT-143 (4980_N08) (antibody) (VH): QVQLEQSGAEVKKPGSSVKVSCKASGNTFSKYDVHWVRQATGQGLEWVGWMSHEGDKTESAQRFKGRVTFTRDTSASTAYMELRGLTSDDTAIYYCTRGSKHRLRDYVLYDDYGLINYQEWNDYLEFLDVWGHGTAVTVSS
Chain of PGT-143 (4980_N08) (antibody) (VL): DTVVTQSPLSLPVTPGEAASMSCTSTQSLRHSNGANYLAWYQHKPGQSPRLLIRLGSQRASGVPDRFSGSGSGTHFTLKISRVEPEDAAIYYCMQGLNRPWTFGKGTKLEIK
Chain of PGT-141 (4964_G22; 4993_K13) (antibody) (VH): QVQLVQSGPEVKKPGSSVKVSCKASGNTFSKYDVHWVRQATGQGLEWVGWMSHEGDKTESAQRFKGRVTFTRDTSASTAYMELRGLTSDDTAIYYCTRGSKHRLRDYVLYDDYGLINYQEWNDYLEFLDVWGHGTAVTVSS
Chain of PGT-141 (4964_G22; 4993_K13) (antibody) (VL): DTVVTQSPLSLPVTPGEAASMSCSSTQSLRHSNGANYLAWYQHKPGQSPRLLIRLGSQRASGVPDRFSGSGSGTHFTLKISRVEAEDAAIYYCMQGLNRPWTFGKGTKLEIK
Chain of PGT-142 (4995_E20) (antibody) (VH): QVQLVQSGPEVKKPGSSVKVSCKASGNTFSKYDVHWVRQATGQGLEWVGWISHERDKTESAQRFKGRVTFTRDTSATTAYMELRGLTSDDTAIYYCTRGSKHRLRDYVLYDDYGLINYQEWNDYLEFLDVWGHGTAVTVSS

Take b12 (antibody): the IC90 (neutralization of pseudovirus) in assay [1] is 0.28 µg/mL; in assay [2], > 50 µg/mL; in assay [3], 34.2 µg/mL; in [4], 29.6 µg/mL.

For the substance 1443_C16 (PG16) (TCN-116) (antibody), the IC50, Neutralizing Antibody Assay, Virus/Ab Incubation 1 hour in assay [5] was found to be 0.136 µg/mL; in [6], 0.33 µg/mL; in [7], 0.0211 µg/mL. Also, the IC50, Neutralizing Antibody Assay, Virus/Ab Incubation 18 hour in [5] was 0.0435 µg/mL; in [6], 0.255 µg/mL; in assay [7], 0.0085 µg/mL. The IC90 (neutralization of pseudovirus) was > 50 µg/mL in assay [1]; 44.3 µg/mL in assay [2]; > 50 µg/mL in assay [8]; > 50 µg/mL in assay [3]; > 50 µg/mL in assay [4].

In the case of PGV04 (antibody), the IC50 (µg/mL), pseudovirus neutralization in assay [9] turned out to be 0.09 µg/mL; in assay [10] it was 0.025 µg/mL; in [11], 0.172 µg/mL; in [13] it was 0.201 µg/mL; in assay [17], 0.088 µg/mL; in assay [18] it was 43.2 µg/mL. In addition, the IC50 (µg/mL), pseudovirus neutralization in [19] was 0.201 µg/mL. Also, the half-inhibitory concentration (IC50) in assay [12] worked out at 4.46 µg/mL; in assay [15], 0.202 µg/mL. The IC50, single-round pseudovirus neutralization in assay [14] was 0.047 µg/mL; in [16] it was 0.142 µg/mL; in assay [20], 0.129 µg/mL; in assay [21] it was 0.744 µg/mL.

With 4E10 (antibody), the IC90 (neutralization of pseudovirus) in assay [1] is 29.6 µg/mL; in [3], 13.4 µg/mL; in assay [4], 16.4 µg/mL.

Take 2F5 (antibody): the results for the IC90 (neutralization of pseudovirus) in assay [1], in [3] and in assay [4] were 19.3 µg/mL, 12.2 µg/mL and > 50 µg/mL, respectively.

Take 5141_B17 (PGT-126) (antibody): the IC50, pseudovirus neutralization in assay [22] turned out to be 0.501 µg/mL; in [27], 0.015 µg/mL; in assay [28] it was 0.012 µg/mL. The Fold IC50 increase relative to wild-type came out at 0.2 fold in [23], 2.2 fold in assay [24], 5 fold in assay [25] and 0.2 fold in [26]. In assay [15], the Neutralization IC80 amounted to 0.0316 µg/mL. Also, the Neutralization IC90 in assay [15] was 0.0655 µg/mL. In addition, the Neutralization IC95 in assay [15] is 0.128 µg/mL. In [15], this substance had a neutralization IC50 of 0.0091 µg/mL.

As to 1495_C14 (PGC14) (antibody), the IC50, Neutralizing Antibody Assay, Virus/Ab Incubation 1 hour in [5], in [6] and in assay [7] was > 50 µg/mL each time. For the same substance, the IC50, Neutralizing Antibody Assay, Virus/Ab Incubation 18 hour was > 50 µg/mL in assay [5], 0.146 µg/mL in assay [6] and > 50 µg/mL in assay [7].

Consider 5136_H01 (PGT-131) (antibody), for which the Fold IC50 increase relative to wild-type in assay [29] was 8.8 fold; in assay [30] it was 96 fold; in assay [23], 2 fold; in assay [24], 19 fold; in [25], 1.4 fold; in assay [31], > 170 fold. Further, the Fold IC50 increase relative to wild-type in assay [32] was determined as 1.3 fold; in assay [26], 2.3 fold; in assay [33] it was 2.1 fold.

Consider PGT-141 (4964_G22; 4993_K13) (antibody), for which the IC50, pseudovirus neutralization in assay [34] was > 10 µg/mL; in [35], > 10 µg/mL; in assay [36], > 10 µg/mL; in assay [37] it was 0.616 µg/mL; in assay [38] it was > 10 µg/mL; in assay [39], > 10 µg/mL. In addition, the IC50, pseudovirus neutralization was 0.822 µg/mL in [40] and > 10 µg/mL in assay [41].

For 5147_N06 (PGT-130) (antibody), the Fold IC50 increase relative to wild-type in [29] is > 77.9 fold; in assay [30], 17 fold; in assay [31], > 1000 fold; in [33], 0.7 fold. In addition, the IC50, pseudovirus neutralization in assay [22] is > 10 µg/mL; in assay [28] it was 0.0345 µg/mL.

On to 2G12 (antibody), for which the IC90 (neutralization of pseudovirus) in assay [1] was 15.8 µg/mL; in assay [8] it was > 50 µg/mL; in assay [3] it was > 50 µg/mL; in [4] it was > 50 µg/mL.

For PGT-144 (4970_K22) (antibody), the IC50, pseudovirus neutralization is > 10 µg/mL in assay [34]; > 10 µg/mL in assay [35]; > 10 µg/mL in [36]; 5.12 µg/mL in assay [37]; > 10 µg/mL in assay [38]; > 10 µg/mL in assay [39]. Also, the IC50, pseudovirus neutralization in assay [40] and in assay [41] was > 10 µg/mL throughout.

Consider 5145_B14 (PGT-127) (antibody), for which the Fold IC50 increase relative to wild-type in [29] was 6 fold; in assay [24] it was 1.8 fold; in [31], 0.93 fold; in [33], 2.3 fold. This substance also had an IC50, pseudovirus neutralization in assay [27] of 0.059 µg/mL.

On to PGT-142 (4995_E20) (antibody), for which the IC50, pseudovirus neutralization is > 10 µg/mL in [34]; > 10 µg/mL in [35]; > 10 µg/mL in assay [36]; 0.393 µg/mL in [37]; > 10 µg/mL in [38]; > 10 µg/mL in assay [39]. For the same substance, the IC50, pseudovirus neutralization in assay [40] was 0.272 µg/mL; in assay [41], > 10 µg/mL.

Regarding 5123_A06 (PGT-125) (antibody), the IC50, pseudovirus neutralization in assay [22] was determined as 7.31 µg/mL; in assay [27], 0.016 µg/mL; in [28], 0.0128 µg/mL. In addition, the Fold IC50 increase relative to wild-type in assay [23] came to 0.2 fold; in assay [25] it was 3.3 fold; in assay [31] it was 0.4 fold; in [26], 1.2 fold; in [33], 0.8 fold.

With PGT-143 (4980_N08) (antibody), the IC50, pseudovirus neutralization was > 10 µg/mL in assay [34]; > 10 µg/mL in assay [35]; > 10 µg/mL in assay [36]; 0.618 µg/mL in assay [37]; > 10 µg/mL in assay [38]; > 10 µg/mL in assay [39]. Further, the results for the IC50, pseudovirus neutralization in assay [40] and in assay [41] were 0.505 µg/mL and > 10 µg/mL, respectively.

4877_D15 (PGT-122) (antibody): the IC50, pseudovirus neutralization in assay [22] was 0.522 µg/mL; in assay [27] it was 0.021 µg/mL; in assay [28] it was 0.992 µg/mL.
